Source: PMC10030117 (eLife, 2023)

Key:
[1] = biological target: T1, SARS-2 spike (2P-stabilized ectodomain with foldon) (SARS-CoV-2 Wuhan-Hu-1, UniProt P0DTC2, K986 substituted with proline | V987 substituted with proline); experiment: far-Western, overlay or dot blot; details: both partners purified
[2] = biological target: T1, SARS-2 spike (2P-stabilized ectodomain …); experiment: ELISA
SARS-2 HexaPro S2 [3] = biological target: T2, SARS-2 HexaPro S2 (SARS-CoV-2 Wuhan-Hu-1, HexaPro, proline substitution at position 817 | proline substitution at position 892 | …); experiment: BLI + SPR; details: both partners purified
SARS-2 HexaPro S2 [4] = biological target: T2, SARS-2 HexaPro S2; experiment: cryo-EM structure; details: both partners purified
SARS-2 HexaPro spike = SARS-2 HexaPro spike (SARS-CoV-2 Wuhan-Hu-1, HexaPro; T4 …, proline substitution at position 817 | proline substitution at position 892 | …); experiment: BLI; details: both partners purified
[5] = biological target: Authentic wild-type SARS-2 spike, full-length unstabilized, on the cell surface (Severe acute respiratory syndrome …, UniProt P0DTC2); experiment: flow cytometry on cells; details: one partner purified
[6] = biological target: SARS-2 4P-DS spike (4P with an additional stabilizing disulfide) (SARS-CoV-2 Wuhan-Hu-1, UniProt P0DTC2, disulfide bond between amino acids 965 and 1003 (965) | disulfide bond between …, disulfide bond between amino acids 965 and 1003; Alexa Fluor 647 label in the yeast display experiment); experiment: SPR; details: both partners purified

B1: Antibody 3E11, full-length (mouse variable region-human IgG1 constant region chimera) (antibody, V domains shown)
VH: EVQLQQSGTVLARPGASVKMSCKASGYSFTNYWVHWVKQRPGQGLEWIGAIYPGNGDTTYNQKFKDKAKLTAVTSTSSAYMDLSSLTSEDSAVYYCTRRANYGSRYDYWGQGTTLTVSS
VL: DIVMTQSTSSLSASLGDRVTISCRASQGINNYLNWYQQKPDGTVKLLIYHTSRLHSGVPSRFSGSGSGTDYSLTISNLEQEDIATYFCQQGDTLPYTFGGGTKLEIK
notes: IgG1
binding result [1]: binds

B2: 3E11 scFv displayed on M13 phage (scFv, V domains shown)
VH: EVQLQQSGTVLARPGASVKMSCKASGYSFTNYWVHWVKQRPGQGLEWIGAIYPGNGDTTYNQKFKDKAKLTAVTSTSSAYMDLSSLTSEDSAVYYCTRRANYGSRYDYWGQGTTLTVSS
VL: DIVMTQSTSSLSASLGDRVTISCRASQGINNYLNWYQQKPDGTVKLLIYHTSRLHSGVPSRFSGSGSGTDYSLTISNLEQEDIATYFCQQGDTLPYTFGGGTKLEIK
notes: VL-linker-VH order
binding result ([2]; one partner purified): binds

B3: 3A3 Fab (Fab, V domains shown)
VH: QVQLQQSGAELLKPGASVKLSCTASGFNIKDTYIHWLKQRPEQGLEWIGRIGPAIGNTIYAPKFQGKATITTDTSSNTAYLQLSSLTSEDTAVYYCARYYGSSYYYFDYWGQGTTLTVSS
VL: DIVMTQSAPSVPVTPGESVSISCRSSKSLLHSNGNTYLYWFLQRPGQSPQLLIYRMSNLASGVPDRFSGSGSGTAFTLRISRVEAEDVGVYYCMQYLEYPLTFGAGTKLELK
Kd (SARS-2 HexaPro S2 [3]): ~3 nM
stoichiometry N (SARS-2 HexaPro S2 [4]): 1 Fab per S2 protomer

B4: Antibody 3A3, full-length (mouse variable region-human IgG1 constant region chimera) (antibody, V domains shown)
VH: QVQLQQSGAELLKPGASVKLSCTASGFNIKDTYIHWLKQRPEQGLEWIGRIGPAIGNTIYAPKFQGKATITTDTSSNTAYLQLSSLTSEDTAVYYCARYYGSSYYYFDYWGQGTTLTVSS
VL: DIVMTQSAPSVPVTPGESVSISCRSSKSLLHSNGNTYLYWFLQRPGQSPQLLIYRMSNLASGVPDRFSGSGSGTAFTLRISRVEAEDVGVYYCMQYLEYPLTFGAGTKLELK
kon (SARS-2 HexaPro spike): 800000 ± 100000 M⁻¹ s⁻¹
fold worse ELISA EC50 (stressed against fresh) ([2]; both partners purified): ~150 fold
binding result [5]: no binding (tested: ~1–300 nM)

B5: Antibody RAY53, full-length human IgG1 (antibody, V domains shown)
VH: QVQLVQSGAVVLKPGASVKLSCKASGFNIKNTYIHWLKQAPGQRLEWIGRIGPAIGNTIYAPKFQGKATITTDTSASTAYLELSSLRSEDTAVYYCARYYGSSYYYLDYWGQGTTVTVSS
VL: DIVMTQSPLSVPVTPGEPVSISCRSSKSLLHSNGNTYLYWFLQKPGQSPQLLIARMSTLASGVPDRFSGSGSGTAFTLKISRVEAEDVGVYYCMQYLEYPLTFGAGTKLEIK
Kd [6]: 100 ± 16 nM
binding result ([2]; both partners purified): binds
Kd [5]: 100 ± 20 nM

B6: RAY53 Fab (Fab, V domains shown)
VH: QVQLVQSGAVVLKPGASVKLSCKASGFNIKNTYIHWLKQAPGQRLEWIGRIGPAIGNTIYAPKFQGKATITTDTSASTAYLELSSLRSEDTAVYYCARYYGSSYYYLDYWGQGTTVTVSS
VL: DIVMTQSPLSVPVTPGEPVSISCRSSKSLLHSNGNTYLYWFLQKPGQSPQLLIARMSTLASGVPDRFSGSGSGTAFTLKISRVEAEDVGVYYCMQYLEYPLTFGAGTKLEIK
Kd [6]: 1300 ± 200 nM
